In experiment [1] the target is H3K4me3K9acK14acK18ac histone peptide (dCypher, biotinylated). As to the kind of experiment: AlphaScreen or HTRF; dCypher on the Alpha platform; biotinylated histone peptide (100 nM final) on streptavidin donor beads, 6His-tagged Query titrated and held on Ni-NTA acceptor beads; 50 mM Tris pH 7.5, 50 mM NaCl, 0.01% Tween-20, 0.01% BSA, 0.0004% Poly-L Lysine, 1 mM TCEP; room temperature; relative EC50 (EC50^rel). A general note: Alpha assays give light when donor and acceptor beads are brought close together.

The target in experiment [2] is H4K5acK8acK12acK16ac histone peptide (dCypher, biotinylated). As to the kind of experiment: AlphaScreen or HTRF; dCypher on the Alpha platform; biotinylated histone peptide (100 nM final) on streptavidin donor beads, GST-tagged Query titrated and held on glutathione acceptor beads; 50 mM Tris pH 7.5, 50 mM NaCl, 0.01% Tween-20, 0.01% BSA, 0.0004% Poly-L Lysine, 1 mM TCEP; room temperature; relative EC50 (EC50^rel), not an equilibrium Kd.

In experiment [1], BPTF 6His-PHD (domain or fragment) gave a fold weaker than for the H3K4me3 peptide of 2 fold.

In the case of GST-BRD4-BD1 (domain or fragment), the EC50 in experiment [2] amounted to 0.7 nM.

As a reminder, the EC50 is the concentration that produces a half-maximal response. Lower therefore signals a more potent agent.

(Values after article PMC10876215, “Nucleosome conformation dictates the histone code” (eLife, 2024).)
